Reference: patent US20250049888A1, “USE OF THE NEGR1 PROTEIN AND BIOLOGICALLY ACTIVE FRAGMENTS THEREOF IN THE THERAPEUTIC TREATMENT OF ALK-RELATED DISEASES” (FONDAZIONE TELETHON ETS (70%), priority 2021, published 2025)

What was measured:
N2a cells [1] = test: N2a proliferation, cell number at DIV5; assay type: cell-based, murine; settings: 200 ng daily, vs GFP
Description: Next, 10,000 naive N2a cells were seeded and treated daily with 200 ng Negr1, PepA, PepB, PepC, or GFP. At DIV5, cell number was evaluated.

N2a cells [2] = test: N2a cell growth, MTT assay; assay type: cell-based, murine; settings: 500 ng/ml daily, vs GFP
Description: (§1) The 3-(4,5-dimethylthiazol-2-yl)-2,5-diphenyl tetrazolium bromide (MTT) assay was performed to evaluate culture vitality. N2a cells were cultured in a 96-well plate at a concentration of 5×10^3 cell/cm^2. Treatment condition is indicated in the result section. At the end of the treatment, the MTT solution was added to the cell medium at a final concentration of 0.25 mg/mL. The incubation lasted 30 minutes at 37° C. Next, the medium was removed and the formazan precipitates were collected in DMSO (200 μL). The absorbance was measured at 570 nm using a spectrophotometer (Varioskan LUX, Thermofisher) as a proxy for cell viability. Relative cell viability fold is expressed over the control condition.
At the physiological level, Negr1 exists as a GPI-anchored membrane-bound protein and as a soluble protein released upon metalloprotease cleavage (Sanz et al. 2015; Pischedda and Piccoli 2015). Thus, the inventors studied whether ectopic treatment with soluble recombinant Negr1 (Negr1) might modulate cancer cell growth. […] At DIV5, cellular growth was evaluated by MTT assay.
To further narrow down the minimal biologically active sequence within PepA, the PepA structure was analysed in silico. […] At DIV5, cellular growth was evaluated by MTT assay.

[3] = tested on: A549 (adenocarcinoma alveolar basal epithelial cells); test: Growth of human cancer-derived cell line, MTT assay; assay type: cell-based; settings: 200 ng daily, vs GFP
Description: as §1
(§2) Next, the capability of Negr1 and peptide PepA to halt the growth of human cancer-derived cell lines, namely U87 (glioblastoma), SK-Mel5 (melanoma), MCF7 (breast adenocarcinoma), A549 (adenocarcinoma alveolar basal epithelial cells), and SH-SY5Y (neuroblastoma) was tested. To this aim, each line was treated daily with 200 ng GFP, rNegr1, or PepA. At DIV5, cellular growth was evaluated by MTT assay. […] Such results are in good agreement with the expression of the receptor ALK, that has been experimentally detected in cancer cell lines of ectodermal origin (including small cell lung carcinoma, breast carcinoma, melanoma, neuroblastoma, and glioblastoma) (Dirks et al. 2002).

[4] = tested on: MCF7 (breast adenocarcinoma); test: as above; assay type: cell-based; settings: 200 ng daily, vs GFP
Description: as §1, §2

SH-SY5Y (neuroblastoma) = test: as above; assay type: cell-based; settings: 200 ng daily, vs GFP
Description: as §1, §2

SK-Mel5 (melanoma) = test: as above; assay type: cell-based; settings: 200 ng daily, vs GFP
Description: as §1, §2

U87 (glioblastoma) = test: as above; assay type: cell-based; settings: 200 ng daily, vs GFP
Description: as §1, §2

N2a cells [5] = test: N2a xenograft tumor growth in CD1 nude mice; assay type: in vivo
Description: 1 million N2a cells were suspended in 150 μl of DMEM high glucose and delivered subcutaneously above the left rear paw in 8-week old nu/nu mice (Charles River) by injection with a micro-syringe (Hamilton). All procedures involving animals were approved by Institutional and National Agencies (authorization 559/2016-PR).
Xenograft mouse models represent an established tool to investigate cancer progression in vivo. To this aim, 1 million N2a cells (naive, clone 3, and clone 11) was injected subcutaneously (s.c.) in immunodeficient CD1 nude mice. Tumor volume was monitored […] by measuring tumor size with a Vernier caliper. Tumor volume was calculated using the ellipsoid formula (length×width×height×0.52).
To further assess the anti-neoplastic activity of PepA, 1 million N2a cells were injected s.c in 6-weeks old CD1 nude mice. When the tumor reached 100 mm^3 volume, 2 μg of GFP or PepA were injected in situ. The treatment was repeated every second day, and tumor growth was monitored daily.
Next, 1 million N2a cells were injected s.c in 6-weeks old nude mice. […] The treatment was repeated every second day and the tumor growth was monitored daily.
Treatment was repeated every second day and tumor growth was monitored daily.
To this aim, 1 million N2a cells were injected s.c in 6-weeks old CD1 nude mice. […] The treatment was repeated every second day and the tumor growth was monitored daily.

[6] = Presence in tumor, liver and kidney by STREP-pulldown after in situ injection; assay type: in vivo, mice; settings: after in situ injection of 2 μg every second day, day 9
Description: HEK293 cells transfected with the relative construct were lysed in RIPA buffer (150 mM NaCl, 50 mM HEPES, 0.5% NP40, 1% Sodium-deoxycholate) for one hour at 4° C. and then processed for streptavidin immunoprecipitation. Proteins were eluted from STREP resin in elution buffer (2.5 mM Desthiobiotin, 100 mM Tris-HCL, 150 mM NaCl, 1 mM EDTA) in mild agitation for one hour at 4° C. The protein concentration was measured via standard Bradford assay (Bio-Rad), and protein purity was assessed by SDS-PAGE followed by silver staining. Synthetic peptides were purchased at Genscript Nederland. Mice tissues were lysed in RIPA buffer (150 mM NaCl, 50 mM HEPES, 0.5% NP40, 1% Sodium-deoxycholate, 1 ml/mg of tissue) for one hour at 4° C. and then processed for streptavidin immunoprecipitation. Proteins were eluted from STREP resin in Laemmli buffer.
At day 9 post injection (or earlier in case the tumor reached 2.5 cm^3 volume), the animals were sacrificed and the mice tissues were harvested and analysed for the presence of GFP and PepA.

CD34 = test: Tumor neo-vascularization by CD34 immunofluorescence; assay type: in vivo, mice; settings: tumors treated in situ, vs GFP
Description: Tumors were dissected, post-fixed for 2 hours by immersion in 4% PFA, then included in OCT and stored at −80° C. until processing. 14 μm sections were obtained after serial sectioning on Leica cryostat and mounted on Polysine Slides (Thermo Fischer Scientific). The slices were saturated in 2.5% BSA, 10% NGS, 0.2% Triton X-100, PBS 1×, for 1 hour at RT and incubated with the primary antibody O/N at 4° C. (Anti-CD34 antibody [EP373Y], ABCAM, ab81289). After 3 washes in PBS 1×-0.2% Triton X-100 the sections were incubated for 1 h with the conjugated secondary antibody at RT (AffiniPure Goat Anti-Rabbit IgG (H+L) Alexa Fluor 594, Jackson ImmunoResearch, 111-585-003). The slices were then rinsed 3 times in PBS 1×-0.2% Triton X-100, rinsed once in PBS1× and then mounted in water-based mounting media. Sections were kept at 4° C. in the dark until acquisition with a Zeiss Axio Imager M2 equipped with 40× objective.
Cancer growth requires and triggers vascularization. In particular, cancer mass is characterized by the presence of immature vessels decorated by CD34 protein. Thus, the inventors analyzed tumor neo-vascularization by detecting CD34 protein.

ALK = ALK protein expression level in N2a cells, western blotting; assay type: cell-based, murine; settings: 300 ng/ml daily for 5 days, vs GFP
Description: Protein level and relative phosphorylation was assessed by western blotting. Briefly, upon a wash in PBS, cells were solubilized in lysis buffer (150 mM NaCl, 50 mM HEPES, 0.5% NP40, 1% sodium-deoxycholate). After 1 hour under mild agitation, the lysate was clarified by centrifugation for 20 min at 16,000 g. All experimental procedures were performed at 4° C. Protein concentrations were evaluated via Bradford assay (Bio-Rad, USA). For Western blotting experiments, an equal amount of proteins was diluted with 0.25% 5× Laemmli buffer. The samples were separated on 10% SDS-PAGE gels which were transferred onto nitrocellulose membrane (Sigma-Aldrich) at 80 V for 120 min at 4° C. […] Antibodies were applied overnight in blocking buffer (20 mM Tris, pH 7.4, 150 mM NaCl, 0.1% Tween 20, and 5% nonfat dry milk). Proteins were detected using the ECL prime detection system (GE Healthcare). The ECL signals were acquired with the imaging ChemiDoc Touch system (Bio Rad Laboratory Italy, Segrate, Italy). The optical density of the specific bands was quantified with ImageLab software (Bio Rad).

MYCN = MYCN protein expression level in N2a cells, western blotting; assay type: cell-based, murine; settings: 300 ng/ml daily for 5 days, vs GFP
Description: Protein level and relative phosphorylation was assessed by western blotting. Briefly, upon a wash in PBS, cells were solubilized in lysis buffer (150 mM NaCl, 50 mM HEPES, 0.5% NP40, 1% sodium-deoxycholate). After 1 hour under mild agitation, the lysate was clarified by centrifugation for 20 min at 16,000 g. All experimental procedures were performed at 4° C. Protein concentrations were evaluated via Bradford assay (Bio-Rad, USA). For Western blotting experiments, an equal amount of proteins was diluted with 0.25% 5× Laemmli buffer. The samples were separated on 10% SDS-PAGE gels which were transferred onto nitrocellulose membrane (Sigma-Aldrich) at 80 V for 120 min at 4° C. […] Proteins were detected using the ECL prime detection system (GE Healthcare). […] The optical density of the specific bands was quantified with ImageLab software (Bio Rad).
The inventors monitored whether treatment with rNegr1 or PepA might impact on ALK-MYCN pathway. […] At DIV5, the culture was processed for western blotting and ALK and MYCN protein expression levels were evaluated.
At DIV5, the culture was processed for western-blotting, and ALK and MYCN protein expression was evaluated.

Molecule	N2a proliferation (cell number) at DIV5 (N2a cells [1])	N2a growth (MTT) at DIV5 (N2a cells [2])	growth of A549 cells (MTT) at DIV5 [3]	growth of MCF7 cells (MTT) at DIV5 [4]	growth of SH-SY5Y cells (MTT) at DIV5 (SH-SY5Y (neuroblastoma))	growth of SK-Mel5 cells (MTT) at DIV5 (SK-Mel5 (melanoma))	growth of U87 cells (MTT) at DIV5 (U87 (glioblastoma))	tumor growth (tumor volume, fold over day 1) (N2a cells [5]; 2 μg in situ every second day, vs GFP)	tumor growth (tumor volume, fold over day 1) (N2a cells [5]; 10 μg in situ every second day, vs PEG-scramble peptide)	presence in mice tissues (STREP-pulldown) [6]	tumor vascularization (total area stained by CD34 and average vessel area) (CD34)	ALK protein level (ALK)	MYCN protein level (MYCN)
PepB: Negr1 IgG-like domain, SEQ ID NO:16, strep-FLAG tagged recombinant protein (protein, strep-FLAG tag; PepB) PKIYDISNDMTINEGTNVTLTCLATGKPEPVISWRHISPSAKPFENGQYLDIYGITRDQAGEYECSAENDVSFPDVKKVRVI	did not	–	–	–	–	–	–	–	–	–	–	–	–
PepC: Negr1 IgG-like domain, SEQ ID NO:17, strep-FLAG tagged recombinant protein (protein, strep-FLAG tag; PepC) APTIQEIKSGTVTPGRSGLIRCEGAGVPPPAFEWYKGEKRLFNGQQGIIIQNFSTRSILTVTNVTQEHFGNYTCVAANKLGTTNASLP	did not	–	–	–	–	–	–	–	–	–	–	–	–
PepA: first Negr1 IgG-like domain, SEQ ID NO:8, strep-FLAG tagged recombinant protein from HEK293 cells (protein, strep-FLAG tag; PepA) VDFPWAAVDNMLVRKGDTAVLRCYLEDGASKGAWLNRSSIIFAGGDKWSVDPRVSISTLNKRDYSLQIQNVDVTDDGPYTCSVQTQHTPRTMQVHL	significantly reduced N2a proliferation	significantly reduced N2a growth	significantly reduce the growth	significantly reduce the growth	significantly reduce the growth	significantly reduce the growth	significantly reduce the growth	robust growth reduction in tumor	robust growth reduction in tumor	present in the tumor, liver, and kidney	strongly reduced vascularization	robust reduction of ALK and MYCN protein levels	robust reduction of ALK and MYCN protein levels
